Experimental data reported in the supplement of paper PMC7125110.
± gives the standard error. For some assays here: This sample holds only a part of the variants without activity.

B1: glmS ribozyme (parent)
chain: AUAAAAGCGCCAGAACUACAGAAAUGUAGUUGACGAGGAGGAGGUUUAUCGAAUUUUCGGCGGAUGCCUCCAAA

What was measured:
Conditions in all cases: with glucosamine-6-phosphate
glucosamine-6-phosphate [1] = variants of: B1; assay: kcat; higher = faster cleavage; RNA array
Procedure, shortened: (§1)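 kobs was derived by fitting per-tile medians to one- or two-exponential decays after normalising signals to baseline and to non-cleaving reference variants. Those signals came from barcoded ribozyme variants transcribed in situ by E. coli RNA polymerase on sequenced MiSeq chips, followed through a hybridised Cy3 probe at 37 °C and imaged over ~14 h. Glucosamine-6-phosphate (40 μM to 10 mM) in HEPES/KCl/Mg(OAc)2 buffer was flowed in. Weighted Michaelis–Menten fits across concentrations then gave kcat and KM.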

glucosamine-6-phosphate [2] = variants of: B1; assay: KM; higher = weaker cofactor use; RNA array
Procedure, shortened: as §1

glucosamine-6-phosphate [3] = variants of: B1; assay: self-cleavage kobs at 40 uM GlcN6P; higher = faster cleavage; RNA array
Procedure, shortened: as §1

glucosamine-6-phosphate [4] = variants of: B1; assay: self-cleavage kobs at 160 uM GlcN6P; higher = faster cleavage; RNA array
Procedure, shortened: as §1

glucosamine-6-phosphate [5] = variants of: B1; assay: self-cleavage kobs at 640 uM GlcN6P; higher = faster cleavage; RNA array
Procedure, shortened: as §1

glucosamine-6-phosphate [6] = variants of: B1; assay: self-cleavage kobs at 2500 uM GlcN6P; higher = faster cleavage; RNA array
Procedure, shortened: as §1

glucosamine-6-phosphate [7] = variants of: B1; assay: self-cleavage kobs at 10000 uM GlcN6P; higher = faster cleavage; RNA array
Procedure, shortened: as §1

Row | Variant | kcat (glucosamine-6-phosphate [1]) | KM (glucosamine-6-phosphate [2]) | self-cleavage kobs at 40 uM GlcN6P (glucosamine-6-phosphate [3]) | self-cleavage kobs at 160 uM GlcN6P (glucosamine-6-phosphate [4]) | self-cleavage kobs at 640 uM GlcN6P (glucosamine-6-phosphate [5]) | self-cleavage kobs at 2500 uM GlcN6P (glucosamine-6-phosphate [6]) | self-cleavage kobs at 10000 uM GlcN6P (glucosamine-6-phosphate [7])
1 | U55A C68G | 8.49e-05 ± 3.5e-06 s⁻¹ | 51.2 ± 14 µM | 3.36e-05 ± 1e-05 s⁻¹ | 6.64e-05 ± 1e-05 s⁻¹ | 8.75e-05 ± 1.2e-05 s⁻¹ | 8.44e-05 ± 1.1e-05 s⁻¹ | 8.04e-05 ± 7.4e-06 s⁻¹
2 | U56A G66C | 0.000237 ± 5.7e-05 s⁻¹ | – | – | – | 0.000107 ± 1.6e-05 s⁻¹ | 0.000132 ± 3.9e-05 s⁻¹ | 0.000238 ± 4.6e-05 s⁻¹
3 | C61A U69G | < 1e-05 s⁻¹ | – | < 1e-05 s⁻¹ | – | – | – | –
4 | C61A C67U | 4.47e-05 ± 1.3e-05 s⁻¹ | – | – | 2.79e-05 ± 1.1e-05 s⁻¹ | 6.41e-05 ± 1.4e-05 s⁻¹ | 4.8e-05 ± 9.3e-06 s⁻¹ | –
5 | C58G C71U | 7.95e-05 ± 3.4e-06 s⁻¹ | 402 ± 99 µM | – | – | 4.63e-05 ± 1.1e-05 s⁻¹ | 7.26e-05 ± 8.7e-06 s⁻¹ | 7.36e-05 ± 9e-06 s⁻¹
6 | U57C C67U | 6.51e-05 ± 8.2e-06 s⁻¹ | – | – | – | 3.88e-05 ± 8.6e-06 s⁻¹ | 3.71e-05 ± 7.6e-06 s⁻¹ | 6.33e-05 ± 5.1e-06 s⁻¹
7 | U55G C71A | 0.00224 ± 0.00065 s⁻¹ | 528 ± 220 µM | 0.000162 ± 2.2e-05 s⁻¹ | 0.000541 ± 0.00013 s⁻¹ | 0.00113 ± 0.00015 s⁻¹ | 0.00315 ± 0.00085 s⁻¹ | –
8 | G62C U69A | 1.17e-05 ± 3.8e-06 s⁻¹ | – | – | – | – | – | –
9 | U54C C71A | 0.00379 ± 0.00088 s⁻¹ | 1580 ± 530 µM | 0.000112 ± 1.4e-05 s⁻¹ | 0.000296 ± 4.1e-05 s⁻¹ | 0.00133 ± 0.00019 s⁻¹ | 0.00192 ± 0.00026 s⁻¹ | 0.0039 ± 0.00049 s⁻¹
10 | U57G C58U C70U | 1.35e-05 ± 3.4e-06 s⁻¹ | – | – | < 1e-05 s⁻¹ | – | – | –
11 | G63C U65G | < 1e-05 s⁻¹ | – | < 1e-05 s⁻¹ | < 1e-05 s⁻¹ | – | – | < 1e-05 s⁻¹
12 | U49G C58A | 3.25e-05 ± 8.4e-06 s⁻¹ | 6150 ± 2700 µM | < 1e-05 s⁻¹ | – | – | – | –
13 | A53U G60A C70A | 1.78e-05 ± 4.4e-06 s⁻¹ | – | – | – | – | – | –
14 | C50A A53G | 2.89e-05 ± 3e-06 s⁻¹ | – | – | – | – | 3.53e-05 ± 1.5e-05 s⁻¹ | 2.62e-05 ± 9.1e-06 s⁻¹
15 | A52U G59A C68G | < 1e-05 s⁻¹ | – | – | – | – | – | –
16 | U55C C70G | < 1e-05 s⁻¹ | – | < 1e-05 s⁻¹ | – | – | – | –
17 | U55C G66U | 0.00114 ± 0.00044 s⁻¹ | – | 6.69e-05 ± 1.8e-05 s⁻¹ | 0.000202 ± 5.7e-05 s⁻¹ | 0.000297 ± 5.7e-05 s⁻¹ | 0.00105 ± 0.00021 s⁻¹ | 0.00102 ± 0.00022 s⁻¹
18 | G59A G66A | 0.000247 ± 1.9e-05 s⁻¹ | – | – | – | – | – | –
19 | G51A C67G | 2e-05 ± 6.5e-06 s⁻¹ | – | – | – | – | – | –
20 | C58U U65C | < 1e-05 s⁻¹ | – | – | – | – | < 1e-05 s⁻¹ | –
21 | C58U C70G | 1.93e-05 ± 3.5e-06 s⁻¹ | – | – | – | 2.38e-05 ± 9.2e-06 s⁻¹ | 2.22e-05 ± 1e-05 s⁻¹ | –
22 | U55G G60U G63A G66C | 1.16e-05 ± 1e-06 s⁻¹ | – | – | – | – | < 1e-05 s⁻¹ | –
